This is an account of results in PMC9293896.

By Kd is commonly meant the equilibrium constant for the complex coming apart. High values mean lower affinity, low ones higher affinity.

For assay [1], the target named is T1, truncated V1AR (residues 1-378, T378K) G337A, N-terminal SNAP-tag (human) (UniProt P37288).
T1 sequence: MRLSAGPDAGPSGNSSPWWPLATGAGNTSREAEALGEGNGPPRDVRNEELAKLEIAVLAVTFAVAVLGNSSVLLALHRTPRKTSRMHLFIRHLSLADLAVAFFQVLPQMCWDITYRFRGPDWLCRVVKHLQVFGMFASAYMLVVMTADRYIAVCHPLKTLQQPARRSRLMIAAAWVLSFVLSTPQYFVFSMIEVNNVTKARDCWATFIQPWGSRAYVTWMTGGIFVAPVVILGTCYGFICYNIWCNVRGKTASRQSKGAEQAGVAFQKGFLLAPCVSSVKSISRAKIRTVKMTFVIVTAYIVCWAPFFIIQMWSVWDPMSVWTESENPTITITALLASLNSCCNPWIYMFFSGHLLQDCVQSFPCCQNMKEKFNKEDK
The experiment in a line: AlphaScreen or HTRF; whole-cell saturation binding; SNAP-tagged receptor on transfected HEK293T/17 cells labelled with SNAP-Lumi4-Tb; concentration range of HiLyte Fluor 488-Orn8 oxytocin, 1 h at room temperature in 20 mM Hepes pH 7.5, 100 mM KCl, 3 mM MgCl2, 0.05% BSA; nonspecific binding with 1000-fold excess of unlabelled oxytocin; one-site saturation fit. On the technique in general: Bead proximity is the source of the signal in Alpha formats.

Assay [2] addresses OTR-D153Y, N-terminal SNAP-tag (human) (UniProt P30559). Described as above.
The target of assay [3] is wild-type human oxytocin receptor, full length, N-terminal SNAP-tag (human) (UniProt P30559). Described as above.
Assay [4] concerns the target OTR A318G, N-terminal SNAP-tag (human) (UniProt P30559). The description is as above.
The target in assay [5] is T2, truncated V1AR (residues 1-378 with C-terminal mutation T378K), N-terminal SNAP-tag (human) (UniProt P37288).
T2 sequence: T1 sequence with A337G
Described as above.

Assay [6] addresses OTR W188A, N-terminal SNAP-tag (human) (UniProt P30559).
Assay [7] addresses OTR F291A, N-terminal SNAP-tag (human) (UniProt P30559).
Assay [8] addresses OTR Q119A, N-terminal SNAP-tag (human) (UniProt P30559).
The target of assay [9] is OTR Q96A, N-terminal SNAP-tag (human) (UniProt P30559).
Assay [10] concerns the target T1, truncated V1AR (residues 1-378, T378K) G337A, N-terminal SNAP-tag (human).
The target in assay [11] is OTR F175A, N-terminal SNAP-tag (human) (UniProt P30559).
Assay [12] has as its target OTR F292A, N-terminal SNAP-tag (human) (UniProt P30559).
The target in assay [13] is OTR-D153Y, N-terminal SNAP-tag (human) (UniProt P30559).
Assay [14] addresses OTR K116A, N-terminal SNAP-tag (human) (UniProt P30559).
The target of assay [15] is OTR Q295A, N-terminal SNAP-tag (human) (UniProt P30559).
Assay [16] deals with OTR I201A, N-terminal SNAP-tag (human) (UniProt P30559).
The target of assay [17] is wild-type human oxytocin receptor, full length, N-terminal SNAP-tag (human) (UniProt P30559).
Assay [18] has as its target OTR L316A, N-terminal SNAP-tag (human) (UniProt P30559).
Assay [19] concerns the target OTR Q171N, N-terminal SNAP-tag (human) (UniProt P30559).
The target of assay [20] is OTR A318G, N-terminal SNAP-tag (human) (UniProt P30559).
Assay [21] has as its target OTR Q92A, N-terminal SNAP-tag (human) (UniProt P30559).
Assay [22] concerns the target T2, truncated V1AR (residues 1-378 with C-terminal mutation T378K), N-terminal SNAP-tag (human).
The target of assay [23] is OTR Q171A, N-terminal SNAP-tag (human) (UniProt P30559).

Numbering of substitutions follows the chain as printed.

Chain of oxytocin (P01178 whole entry, looked up): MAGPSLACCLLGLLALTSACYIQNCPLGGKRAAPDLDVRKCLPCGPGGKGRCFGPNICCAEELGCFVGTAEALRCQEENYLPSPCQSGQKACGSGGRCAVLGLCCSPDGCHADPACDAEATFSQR

Consider “HiLyte Fluor 488-Orn^8 oxytocin (from UniProt P01178 20-28) (peptide)”, for which the Kd amounted to 20.9 nM in assay [1]; 6.4 nM in assay [2]; 1.4 nM in [3]; 0.9 nM in assay [4]; 9.3 nM in [5].
With “oxytocin (from UniProt P01178 20-28) (peptide)”, the OT-induced IP1 accumulation (HTRF IP-One) in transfected HEK293T cells, EC50 was 156 nM in assay [6]; 542 nM in assay [7]; 444 nM in assay [8]; 1540 nM in assay [9]; 250 nM in [10]; 3480 nM in assay [11]. Moreover, the OT-induced IP1 accumulation (HTRF IP-One) in transfected HEK293T cells, EC50 worked out at 6.1 nM in assay [12]; 42.9 nM in [13]; 6.1 nM in assay [14]; 51.3 nM in [15]; 89.5 nM in assay [16]; 8.4 nM in assay [17]. Further, the OT-induced IP1 accumulation (HTRF IP-One) in transfected HEK293T cells, EC50 was 21.9 nM in [18]; 39.1 nM in assay [19]; 4.6 nM in assay [20]; 222 nM in [21]; 158 nM in assay [22]; 992 nM in assay [23].
